For the assay, the target named is actin from chicken pectoralis muscle (F-actin, TRITC-phalloidin labelled) (chicken, UniProt P68139 1-377). Briefly: method of Cremo and Geeves.

The results in this text go back to publication PMC4586593 (The Journal of General Physiology, 2015).

Values joined by “and” are separate entries in the source; they are usually repeats but may differ in a detail not shown here. Equal entries are not always repeated.

The Kd is the constant that tells how readily two partners part at equilibrium. The low end stands for a tighter complex, the high end for a looser complex.

B1: smooth muscle myosin S1 head (domain or fragment)
chain 1: SQKPLSDDEKFLFVDKNFVNNPLAQADWSAKKLVWVPSEKHGFEAASIKEEKGDEVTVELQENGKKVTLSKDDIQKMNPPKFSKVEDMAELTCLNEASVLHNLRERYFSGLIYTYSGLFCVVINPYKQLPIYSEKIIDMYKGKKRHEMPPHIYAIADTAYRSMLQDREDQSILCTGESGAGKTENTKKVIQYLAVVASSHKGKKDTSITQGPSFSYGELEKQLLQANPILEAFGNAKTVKNDNSSRFGKFIRINFDVTGYIVGANIETYLLEKSRAIRQAKDERTFHIFYYLIAGASEQMRNDLLLEGFNNYTFLSNGHVPIPAQQDDEMFQETLEAMTIMGFTEEEQTSILRVVSSVLQLGNIVFKKERNTDQASMPDNTAAQKVCHLMGINVTDFTRSILTPRIKVGRDVVQKAQTKEQADFAIEALAKAKFERLFRWILTRVNKALDKTKRQGASFLGILDIAGFEIFEINSFEQLCINYTNEKLQQLFNHTMFILEQEEYQREGIEWNFIDFGLDLQPCIELIERPTNPPGVLALLDEECWFPKATDTSFVEKLIQEQGNHAKFQKSKQLKDKTEFCILHYAGKVTYNASAWLTKNMDPLNDNVTSLLNQSSDKFVADLWKDVDRIVGLDQMAKMTESSLPSASKTKKGMFRTVGQLYKEQLTKLMTTLRNTNPNFVRCIIPNHEKRAGKLDAHLVLEQLRCNGVLEGIRICRQGFPNRIVFQEFRQRYEILAANAIPKGFMDGKQACILMIKALELDPNLYRIGQSKIFFRTGVLAHLEEERDLKITDVIIAFQAQCRGYLARKAFAKRQQQLTAMKVIQRNCAAYLKLRNWQWWRLFTKVKP
chain 2: CDFSEEQTAEFKEAFQLFDRTGDGKILYSQCGDVMRALGQNPTNAEVMKVLGNPKSDEMNLKTLKFEQFLPMMQTIAKNKDQGCFEDYVEGLRVFDKEGNGTVMGAEIRHVLVTLGEKMTEEEVEQLVAGHEDSNGCINYEELVRMVLSG
chain 3: SSKRAKAKTTKKRPQRATSNVFAMFDQSQIQEFKEAFNMIDQNRDGFIDKEDLHDMLASMGKNPTDEYLEGMMSEAPGPINFTMFLTMFGEKLNGTDPEDVIRNAFACFDEEASGFIHEDHLRELLTTMGDRFTDEEVDEMYREAPIDKKGNFNYVEFTRILKHGAKDKDD
On to B1, for which the Kd is 15 nM and 25 nM.
